Test results as given in US20200173986A1 (HUGEL, published 2020).

Experiments:
[1] = target: T1, recombinant GST-SNAP25197 (UniProt P60880 1-197); experiment: direct ELISA; signal on GST-SNAP25197 against GST-SNAP25FL as reference
T1 construct: not shown: glutathione S-transferase (GST) tag

recombinant GST-SNAP25FL = target: T2, recombinant GST-SNAP25FL (UniProt P60880 1-206); experiment: BLI (Octet Red96); IgG on AMC biosensor, GST-SNAP25FL as analyte; KD from a tentative koff limit
T2 construct: also called GST-SANP25FL; not shown: glutathione S-transferase (GST) tag
T2 sequence (P60880 whole entry): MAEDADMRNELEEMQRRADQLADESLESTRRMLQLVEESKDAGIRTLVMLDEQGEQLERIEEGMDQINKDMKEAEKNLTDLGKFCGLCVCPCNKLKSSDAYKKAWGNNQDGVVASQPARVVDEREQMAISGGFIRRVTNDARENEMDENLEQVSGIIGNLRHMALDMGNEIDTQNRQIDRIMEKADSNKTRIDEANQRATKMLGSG

[2] = target: T1, recombinant GST-SNAP25197; experiment: BLI (Octet Red96); anti-GST biosensor dipped in 125 nM GST-SNAP25197, IgG as analyte
[3] = target: T1, recombinant GST-SNAP25197; experiment: BLI (Octet Red96); IgG on AMC biosensor, GST-SNAP25197 as analyte; koff is the instrument's lowest limit, tentatively given
[4] = target: T1, recombinant GST-SNAP25197; experiment: BLI (Octet Red96); anti-GST biosensor dipped in 250 nM GST-SNAP25197, IgG as analyte

T1 sequence (P60880 1-197): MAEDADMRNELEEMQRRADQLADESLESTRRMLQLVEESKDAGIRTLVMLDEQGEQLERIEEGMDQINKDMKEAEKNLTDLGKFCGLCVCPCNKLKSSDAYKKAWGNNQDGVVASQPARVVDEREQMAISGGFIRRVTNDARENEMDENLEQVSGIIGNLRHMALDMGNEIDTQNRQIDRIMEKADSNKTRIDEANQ

Row | Binder | Ratio197/206 (A450 with SNAP25197 to A450 with SNAP25FL) [1] [ratio] | koff [3] [s⁻¹] | also measured
1 | B23 IgG (antibody, V domains shown, also called B23 IgG1) VH: EVQLQQSGAELVRPGASVKLSCTASGINIKDYYMHWMKQRPEQDLEWIGWIDPGNGDAEYAPKFQGKATMTADTSSNTAYLQLSSLTSEDTAVYYCNEIAYWGQGTLVTVSA VL: not shown | 0.92 |  | Kd (recombinant GST-SNAP25FL): ≤ 0.00104 nM
2 | D2 IgG (antibody, V domains shown) VH: DVKLQESGPGLVKPSQSLSLTCSVTGYSITSGYYWNWIRQFPGNKLEWMGYIRYDGSNNYNPSLKNRISITRDTSKNQFFLKLNSVTTEDTASYYCARDRDSSYYFDYWGQGTALTVSS VL: DIVMTQSSSYLSVSLGGRVTITCKASDHINNWLAWYQQKPGNAPRLLISDTTSLETGVPSRFSGSGSGKDYTLSITSLQTEDVATYYCQQYWSAPPTFGGGTKLEIK | 0.03 |  | 
3 | D6 IgG (antibody, V domains shown) VH: EVQLQQSGPELVKPGASVKISCKASGYTFTDYNMHWVKQSHGKSLEWIGYIYPYNGDTGYNQKFKSKATLTVDNSSSTAYMELRSLTSEDSAVYYCVRSGDYWGQGTTLTVSS VL: not shown | 0.02 |  | 
4 | B4 IgG (antibody, V domains shown, also called B4 IgG1; clone 4) VH: EVKLVESGGGLVKPGGSLKLSCAASGFTFSNYGMSWVRQTPEKRLEWVATISSGGSYTYYPDSVKGRFTISRDNAKNTLYLQMSSLRSEDTAMYYCARHEGGGNPYFDYWGQGTTLTVSS VL: DVLMTQTPLSLPVSLGDQASISCRSSQSLVHSNGNTYLHWYLQKPGQSPKLLIYKVSNRFSGVPDRFSGSGSGTDFTLKISRVEAEDLGVYFCSQNTLVPWTFGGGTKLEIK | 0.83 |  | Kd (recombinant GST-SNAP25FL): ≤ 0.00105 nM
5 | D3 IgG (antibody, V domains shown) VH: EVQLEESGGGLVQPGGSLKLSCAASGFTFSNYGMSWVRQTPDKRLELVATINSNGGTTYYPDSVKGRFTISRDNAKNTLYLQMSSLKSEDSAMYYCARDRDAMDYWGQGTSVTVSS VL: DVLMTQTPLSLPVSLGDQASISCRSSQSIVNSHGNTYLEWYLQKPGQSPKLLIYKVSNRFSGVPDRFSGSGSGTDFTLKISRVEAEDLGVYYCFQGSHVPWTFGGGTKLEIK | 12.9 |  | 
6 | C7 IgG (antibody, V domains shown, also called C7 IgG2a) VH: QVQLVETGGGLVQPKGSLKLSCAASGFTFNTNAMNWVRQAPGKGLEWVARIRSKSNNYATYYADSVKDRFTISRDDSQSLLYLQMNNLKTEDTAMYYCVYGRSYGGLSYWGQGTLVTVSA VL: DIVMTQSPASLAVSLGQRATISCRASKSVSSSGYSYMHWYQQKPGQPPKLLIYLASNLESGVPARFSGSGSGTDFTLNIHPVEEEDAATYYCQHSRELPLTFGAGTKLELK | 1040 | ≤ 1e-07 | Kd [2]: 19.3 nM; koff [2]: 0.00494 s⁻¹; Kd [4]: 4.41 nM; koff [4]: 0.00122 s⁻¹
7 | C16 IgG (antibody, V domains shown, also called C16 IgG1) VH: EVQLQQSGAELARPGASVQMSCKAFGYTFTNYTMHWVRQRPGQGLEWIGFINPSSDYTNYNQKFKDKATLSADKSSSTAYMQLSSLTSEDSAVYYCARRIFYNGRTYAAMDYWGQGTSVTVSS VL: DIVMTQSPASLAVSLGQRATISCRASKSVSSSGYSYMHWYQQKPGQPPKLLIYLASNLESGVPARFSGSGSGTDFTLNIHPVEEEDAATYYCQHSRELPLTFGAGTKLELK | 996 |  | 
8 | C4 IgG (antibody, V domains shown) VH: DVKLQESGPGLVKPSQSLSLTCTVTGYSITSDYAWNWIRQFPGNKLEWMGYISYSVGTRYNPSLKSRISITRDTSKNQFFLLLKSVTNEDTATYFCARKGEYGFAYWGQGTLVTVSA VL: DIVMTQSPASLAVSLGQRATISCRASKSVSTSGYSYMHWYQQKPGQPPKLLIYLASNLESGVPARFSGSGSGTDFTLNIHPVEEEDAATYYCQHSRELPLTFGAGTKLELK | 919 | ≤ 1e-07 | 
9 | C24 IgG (antibody, V domains shown) VH: EVKLVESGGGLVQPKGSLKLSCAASGYTFNTYAMNWVRQAPGKGLEWVARIRSKSNNYTTYYADSVKDRFTISRDDSQSMLYLQINNLKTEDTAMYYCVGQILYYYVGSPAWFAYWGQGTLVTVSA VL: DIVMTQSPASLAVSLGQRATISCRASKSVSTSGYSYMHWYQQKPGQPPKLLIFLASNLESGVPARFSGSGSGTDFTLNIHPVEEEDAATYYCQHSRELPWTFGGGTKLEIK | 973 | ≤ 1e-07 | 
10 | C14 IgG (antibody, V domains shown) VH: EVKLVESGGGLVQPKGSLKLSCAASGFTFNTNAMNWVRQAPGKGLEWVARIRSKSDNYATYYADSVKDRFTISRDDSPSMLYLQMNNLKTEDTAMYYCVYGRSYGGLGYWGQGTLVTVSA VL: DIVLTQSPASLAVSLGQRATISCRASKSVSTSGYSYVHWYQQKPGQPPKLLIYLASNLESGVPARFSGSGSGTDFTLNIHPVEEEDAATYYCQHSRELPLTFGAGTKLELK | 953 |  | 
